In patent publication US20190367617A1 (AMPSOURCE BIOPHARMA SHANGHAI, published 2019):

Key:
[1] = target: T1, mouse PD-1 (Sino Biological Inc., Beijing, China) (mouse, UniProt Q02242 25-167, limits assumed); assay: indirect ELISA, mouse PD-1 coated, HRP goat anti-human IgG
T1 sequence (looked up): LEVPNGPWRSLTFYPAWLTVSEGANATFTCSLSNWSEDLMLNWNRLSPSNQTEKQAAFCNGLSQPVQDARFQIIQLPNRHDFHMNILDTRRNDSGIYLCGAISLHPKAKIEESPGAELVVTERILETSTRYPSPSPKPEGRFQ
From the text: (§1) The HRP-labeled goat anti-human IgG antibody (The Jackson Laboratory) was used as the secondary antibody, and the detailed assay procedure was as described in Example 2.

[2] = target: T2, Human PD-1 (Sino Biological Inc., Beijing, China) (human, UniProt Q15116 25-167); assay: indirect ELISA, human PD-1 coated at 0.1 µg/mL, HRP goat anti-human IgG
T2 construct: also called hPD-1
T2 sequence (Q15116 25-167 limits assumed): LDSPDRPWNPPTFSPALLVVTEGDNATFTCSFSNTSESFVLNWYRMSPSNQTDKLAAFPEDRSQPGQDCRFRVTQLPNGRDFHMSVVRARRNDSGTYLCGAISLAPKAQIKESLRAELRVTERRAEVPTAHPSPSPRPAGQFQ
From the text: as §1

[3] = target: T2, Human PD-1 (Sino Biological Inc., …); assay: competitive ELISA, human PD-1 coated at 0.1 µg/mL, competitor Opdivo-HRP
Experimental: (§2) Human PD-1 (Sino Biological Inc., Beijing, China) was diluted to 0.1 μg/mL with PBS buffer and added to the 96-well plate at a volume of 100 μL/well and allowed to stand overnight at room temperature. The coating solution was removed, 200 μL of PBST/1% no-fat milk was added to each well and incubated at room temperature for 1 h for blocking. The blocking solution was removed and the plate was washed 3 times with PBST.

[4] = target: T3, human PD-1/His (Sino Biological Inc.) (human, UniProt Q15116 25-170); assay: affinity and kinetic constants; method not restated, taken as BLI of Example 3.4
T3 construct: extracellular domain; Bought protein; also called extracellular domain fragment of PD-1 protein containing His tag; not shown: His tag
T3 sequence (Q15116 25-170): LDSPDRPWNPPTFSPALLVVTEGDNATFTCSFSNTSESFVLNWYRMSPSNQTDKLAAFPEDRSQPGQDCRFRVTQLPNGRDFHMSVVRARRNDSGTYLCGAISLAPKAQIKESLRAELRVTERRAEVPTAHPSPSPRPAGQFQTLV

[5] = target: T2, Human PD-1 (Sino Biological Inc., …); assay: competitive ELISA, human PD-1 coated at 0.1 µg/mL, competitor Keytruda-HRP
Experimental: as §2

[6] = target: T4, PD-1 expressed on the surface of activated human T cells (human, UniProt Q15116 25-288); assay: flow cytometry on activated human T cells, FITC goat anti-human IgG
T4 construct: whole, on cells
T4 sequence (Q15116 25-288): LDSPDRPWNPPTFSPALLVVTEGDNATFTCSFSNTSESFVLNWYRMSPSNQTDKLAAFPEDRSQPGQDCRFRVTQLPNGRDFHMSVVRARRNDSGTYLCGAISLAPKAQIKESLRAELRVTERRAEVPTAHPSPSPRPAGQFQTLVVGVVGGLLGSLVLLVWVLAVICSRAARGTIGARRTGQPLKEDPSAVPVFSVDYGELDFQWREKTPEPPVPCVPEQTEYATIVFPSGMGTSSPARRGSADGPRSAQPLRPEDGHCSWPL
Experimental: Fresh mononuclear cells were obtained from human peripheral blood by density gradient centrifugation (Lymphoprep™, human lymphocyte separation solution, […]), and high purity T lymphocytes were obtained using T cell isolation reagents ([…]). The T lymphocytes were stimulated with 5 μg/mL of the anti-CD3 antibody for 48 h, and cultured for 7 days after addition of 250 IU/mL of human IL-2. A large number of activated T lymphocytes were then obtained. […] The FITC signals were detected by flow cytometry.

[7] = target: T3, human PD-1/His (Sino Biological Inc.); assay: competitive ELISA: PD-1/His coated at 2 µg/mL, blocks biotin-labeled PD-L1/Fc
Experimental: The extracellular domain fragment of PD-1 protein containing His tag was coated onto the 96-well ELISA plate.
PD-1/His was diluted to 2 μg/mL with PBS buffer, pH 7.2, and added to the 96 well ELISA plate at 100 μL per well and incubated with shaking at room temperature for 1 h. The PBS buffer was aspirated from the 96-well ELISA plate. 200 μL of PBST(PBS containing 0.05% Tween 20, pH 7.4)/1% no-fat milk was added to each well and incubated at room temperature for 1 h for blocking. The plate was washed 3 times with PBST. 50 μL of the anti-PD-1 antibody to be tested was added to each well, which was diluted with the blocking solution to an appropriate concentration. […] Incubating at room temperature for 1 h. The plate was washed 3 times with PBST. 100 μL of SA-Avidin-HRP (HRP-labeled streptavidin) diluted at 1:250 ratio with the blocking solution was added to each well, and incubated at room temperature for 1 h. Washing the plate 3 times with PBST. 100 μL of the TMB substrate solution was added to each well and incubated at room temperature for 5-10 min. Adding 50 μL of 0.2 M sulfuric acid to each well to terminate the reaction. The absorbance values were read at 450 nm in a microplate reader.

[8] = target: T5, PD-1 overexpressed on the surface of CHO cells (Homo sapiens (Human), UniProt Q15116 25-288); assay: flow cytometry on PD-1-overexpressing CHO cells, FITC goat anti-human IgG
T5 construct: also called PD-1-overexpressing CHO cells
T5 sequence (Q15116 25-288 limits assumed): as the sequence (Q15116 25-288) above
From the text: FACS (fluorescence activated cell sorting) is a test used for detection of the binding between proteins and cells. The test was used to detect the binding activity of the humanized anti-PD-1 antibodies of the present invention to native PD-1 expressed on the cell surface. The cells used in the test were PD-1-overexpressing CHO cells.

[9] = target: T6, human ICOS/Fc (Sino Biological Inc.) (human, UniProt Q9Y6W8 21-141, limits assumed); assay: indirect ELISA, human ICOS/Fc coated at 0.1 µg/mL, HRP goat anti-mouse IgG
T6 construct: Bought protein; not shown: Fc
T6 sequence (looked up): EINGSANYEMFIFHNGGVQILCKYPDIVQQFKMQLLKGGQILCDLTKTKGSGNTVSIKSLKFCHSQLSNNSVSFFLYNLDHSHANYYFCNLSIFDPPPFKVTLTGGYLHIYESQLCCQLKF
Experimental: (§3) Human PD-1/His, human ICOS/Fc, human CTLA4/His, human CD28/Fc, cynomolgus monkey PD-1/Fc, and mouse PD-1/His (all from Sino Biological Inc., Beijing, China) were diluted with PBS buffer to 0.1 μg/mL, and added to the 96-well plate at a volume of 100 μL/well and placed at 16° C. for 16 to 20 h. The PBS buffer was aspirated from the 96-well plate, and the plate was washed once with PBST (PBS containing 0.05% Tween 20, pH 7.4). 200 μL of PBST/1% no-fat milk was added to each well and incubated at room temperature for 1 h for blocking. The blocking solution was removed and the plate was washed 3 times with PBST. 100 μL of the anti-PD-1 antibody to be tested was added to each well, and incubated at room temperature for 1.5 h. The reaction solution was removed and the plate was washed 3 times with PBST. 50 μL of the HRP-labeled goat anti-mouse IgG secondary antibody (The Jackson Laboratory) diluted (dilution ratio 1:4000) was added to each well. Incubated at room temperature for 1 h. The plate was washed 3 times with PBST. 100 μL of the TMB was added to each well and incubated at room temperature for 5-10 min 50 μL of 0.2 M sulfuric acid was added to each well to terminate the reaction. Absorbance values were read at dual wavelengths of 450/620 nm in a microplate reader.

[10] = target: T7, mouse PD-1/His (Sino Biological Inc.) (mouse, UniProt Q02242 25-167); assay: indirect ELISA, mouse PD-1/His coated at 0.1 µg/mL, HRP goat anti-mouse IgG
T7 construct: Bought protein; not shown: His tag
T7 sequence (looked up): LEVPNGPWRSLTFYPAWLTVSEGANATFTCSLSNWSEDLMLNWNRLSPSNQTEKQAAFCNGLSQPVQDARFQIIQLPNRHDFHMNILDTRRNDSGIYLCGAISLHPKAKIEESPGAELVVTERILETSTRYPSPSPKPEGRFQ
Experimental: as §3

[11] = target: T8, human CTLA4/His (Sino Biological Inc.) (human, UniProt P16410 36-162, limits assumed); assay: indirect ELISA, human CTLA4/His coated at 0.1 µg/mL, HRP goat anti-mouse IgG
T8 construct: Bought protein; not shown: His tag
T8 sequence (P16410 36-162 limits assumed): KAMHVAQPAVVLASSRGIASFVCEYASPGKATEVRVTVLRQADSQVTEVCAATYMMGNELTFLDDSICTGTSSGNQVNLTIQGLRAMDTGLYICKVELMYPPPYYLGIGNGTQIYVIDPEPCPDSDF
Experimental: as §3

[12] = target: T9, cynomolgus monkey PD-1/Fc (Sino Biological Inc.) (cynomolgus monkey, UniProt B0LAJ3 25-170); assay: indirect ELISA, cynomolgus monkey PD-1/Fc coated at 0.1 µg/mL, HRP goat anti-mouse IgG
T9 construct: Bought protein
T9 sequence (B0LAJ3 entry or part of it limits assumed): as the sequence (Q15116 25-170) above, with D2E, P10A, V19L, T35A, Q75R, T144A counted along it
Experimental: as §3

| Binder | binding result [1] | EC50 (read off the curve) [2] | IC50 (read off the curve) [3] | Kd [4] | koff [4] | kon [4] | IC50 (read off the curve) [5] | EC50 (read off the curve) [6] | IC50 [7] | EC50 (read off the curve) [8] | binding result [9] | binding result [10] | binding result [11] | binding result [12] |
| --- | --- | --- | --- | --- | --- | --- | --- | --- | --- | --- | --- | --- | --- | --- |
| mouse-human chimeric antibody AB12M2 (antibody, V domains shown) VH: EVKLVESGGGLVKPGGSLKLSCAASGFTFSSYGMSWVRQTPEKRLEWVATISGGGRDTYYPDSVKGRFTISRDNAKNNLYLQMSSLRSEDTALYYCARQKDTSWFVHWGQGTLVTVSA VL: not shown | no binding (tested: 10 µg/ml) | ~0.003 µg/mL | ~0.08 µg/mL | < 0.001 nM | < 1e-07 s⁻¹ | 198000 M⁻¹ s⁻¹ | ~0.07 µg/mL |  |  |  |  |  |  |  |
| humanized antibody AB12M3 (antibody, V domains shown, the description speaks of human IgG4 or IgG1 and human kappa only as embodiments) VH: EVQLVESGGGLVQPGGSLRLSCAASGFTFSSYGMSWVRQAPGKGLEWVATISGGGRDTYYPDSVKGRFTISRDNAKNNLYLQMNSLRAEDTALYYCARQKDTSWFVHWGQGTLVTVSS VL: EIVLTQSPATLSLSPGERATLSCRASESVDDYGISFMNWFQQKPGQAPKLLIYVASNQGSGVPARFSGSGSGTDFSLTISSLEPDDTAMYFCQQSKEVPWTFGGGTKVEIK | no binding (tested: 10 µg/ml) | ~0.003 µg/mL | ~0.1 µg/mL | < 0.001 nM | < 1e-07 s⁻¹ | 226000 M⁻¹ s⁻¹ | ~0.09 µg/mL | ~0.8 nM | 0.114 nM | ~1 nM |  |  |  |  |
| humanized antibody AB12M4 (antibody, V domains shown) VH: EVKLVESGGGLVKPGGSLRLSCAASGFTFSSYGMSWVRQTPEKRLEWVATISGGGRDTYYPDSVKGRFTISRDNAKNNLYLQMSSLRSEDTALYYCARQKDTSWFVHWGQGTLVTVSA VL: not shown | no binding (tested: 10 µg/ml) | ~0.003 µg/mL | ~0.1 µg/mL | < 0.001 nM | < 1e-07 s⁻¹ | 213000 M⁻¹ s⁻¹ | ~0.09 µg/mL |  | 0.096 nM | ~1 nM |  |  |  |  |
| murine monoclonal antibody AB12N1 (antibody, mouse IgG1, V domains shown, subclass identified as mouse IgG1 (Kappa), purified from hybridoma supernatant; also called antibody of hybridoma clone #22) VH: QVQLVESGGGVVQPGRSLRLDCKASGITFSNSGMHWVRQAPGKGLEWVAVIWYDGSKRYYADSVKGRFTISRDNSKNTLFLQMNSLRAEDTAVYYCATNDDYWGQGTLVTV VL: EIVLTQSPATLSLSPGERATLSCRASQSVSSYLAWYQQKPGQAPRLLIYDASNRATGIPARFSGSGSGTDFTLTISSLEPEDFAVYYCQQSSNWPRTFGQGTKVEIK |  |  |  |  |  |  |  |  |  |  | no binding (tested: 10 µg/mL) | no binding (tested: 10 µg/mL) | no binding (tested: 10 µg/mL) | no binding (tested: 10 µg/mL) |
| humanized antibody AB12N4 (antibody, V domains shown) VH: QVQLVESGGGVVQPGRSLRLSCAASGITFSNSGMHWVRQAPGKGLEWVAVIWYDGSKRYYADSVKGRFTISRDNSKNTLYLQMNSLRAEDTAVYYCATNDDYWGQGTLVTV VL: EIVLTQSPATLSLSPGERATLSCRASQSVSSYLAWYQQKPGQAPRLLIYDASNRATGIPARFSGSGSGTDFTLTISSLEPEDFAVYYCQQSSNWPRTFGQGTKVEIK |  |  |  | 0.378 nM | 2.41e-05 s⁻¹ | 63700 M⁻¹ s⁻¹ |  |  |  |  |  |  |  |  |
| humanized antibody AB12N3 (antibody, V domains shown) VH: QVQLVESGGGVVQPGRSLRLSCAASGITFSNSGMHWVRQAPGKGLEWVAVWYDGSKRYYADSVKGRFTISRDNSKNTLYLQMNSLRAEDTAVYYCATNDDYWGQGTLVTV VL: EIVLTQSPATLSLSPGERATLSCRASQSVSSYLAWYQQKPGQAPRLLIYDASNRATGIPARFSGSGSGTDFTLTISSLEPEDFAVYYCQQSSNWPRTFGQGTKVEIK |  |  |  | 0.365 nM | 2.28e-05 s⁻¹ | 62400 M⁻¹ s⁻¹ |  |  |  |  |  |  |  |  |
| humanized antibody AB12N5 (antibody, V domains shown) VH: QVQLVESGGGVVQPGRSLRLSCAASGITFSNSGMHWVRQAPGKGLEWVAVWYDGSKRYYADSVKGRFTISRDNSKNTLFLQMNSLRAEDTAVYYCATNDDYWGQGTLVTV VL: EIVLTQSPATLSLSPGERATLSCRASQSVSSYLAWYQQKPGQAPRLLIYDASNRATGIPARFSGSGSGTDFTLTISSLEPEDFAVYYCQQSSNWPRTFGQGTKVEIK |  |  |  | 0.414 nM | 2.56e-05 s⁻¹ | 61900 M⁻¹ s⁻¹ |  |  |  |  |  |  |  |  |
